# Literature values as cited in article PMC8707981.
# Read-outs that look alike come from different tables or passages of the source.
# Experiments:
# [1] = target: Spike protein RBD (SARS-CoV-2) (UniProt P0DTC2)
# [2] = target: Spike protein RBD (SARS-CoV-2) (UniProt P0DTC2); remark: listed apart in the source
Substance,Kd [1] [nM],Kd [2] [nM]
Casirivimab,0.0458,–
Imdevimab,–,0.0467
